Reference: US20240117029A1 (Hoffmann-La Roche, published 2024)
Where a chain is given by its changes, count along the chain named. In names and notes the source's numbering stands.

B1: CKLO02 IgG1 (bispecific antibody)
heavy 1: not shown
heavy 2: not shown
light 1: QVQLVQSGAEVKKPGSSVKVSCKASGLTISHTYMHWVRQAPGQGLEWMGRIDPDNHNTKFDPKFQGRVTITADTSTSTAYMELSSLRSEDTAVYYCARGVFGFFEHWGQGTTVTVSSASVAAPSVFIFPPSDEQLKSGTASVVCLLNNFYPREAKVQWKVDNALQSGNSQESVTEQDSKDSTYSLSSTLTLSKADYEKHKVYACEVTHQGLSSPVTKSFNRGEC
light 2: EIVLTQSPATLSLSPGERATLSCRASQHVSDAYLAWYQQKPGQAPRLLIYDASDRAEGVPARFSGSGSGTDFTLTISSLEPEDFAVYYCHQYIHLHSFTFGQGTKVEIKRTVAAPSVFIFPPSDRKLKSGTASVVCLLNNFYPREAKVQWKVDNALQSGNSQESVTEQDSKDSTYSLSSTLTLSKADYEKHKVYACEVTHQGLSSPVTKSFNRGEC
B2: CKLO2-GG01 (bispecific antibody)
heavy 1: DIQMTQSPSSLSASVGDRVTITCKAFEDIYNRRAWYQQKPGKAPKLLIHGATSLEHGVPSRFSGSGSGTDYTLTISSLQPEDFATYYCQQFWSAPYTFGGGTKVEIKSSASTKGPSVFPLAPSSKSTSGGTAALGCLVKDYFPEPVTVSWNSGALTSGVHTFPAVLQSSGLYSLSSVVTVPSSSLGTQTYICNVNHKPSNTKVDKKVEPKSCDKTHTCPPCPAPEYLGGDSVFLFPPKPKDVLMISRTPEVTCVVIDVSHEDPEVKFNWYVDGVEVHNAKTKPREEQYNSTYRVVSVLPVLHRDWLNGKEYKCKVSNKALPKPIEKTISKAKGQRREPQVYTLPPCRDELTKNQVSLWCLVKGFYPSDIAVEWESNGQPENNYKTTPPVLDSDGSFFLYSKLTVDKSRWQQGNVFSCSVMHEALHAHYTRKELSLSP
heavy 2: not shown
light 1: B1 light 1
light 2: B1 light 2
B3: CKLO2-SG1095 (bispecific antibody)
heavy 1: B2 heavy 1 with Y226L, L227W, G228N, D230P, V242T, I256V, H260D, Q287L, P299T, K318T
heavy 2: not shown
light 1: B1 light 1
light 2: B1 light 2
B4: CKLO2-GG02 (bispecific antibody)
heavy 1: B2 heavy 1 with M420L, Y428T
heavy 2: not shown
light 1: B1 light 1
light 2: B1 light 2
B5: CKLO2-GG03/GG04 (bispecific antibody)
heavy 1: B2 heavy 1 with D348E, L350M
heavy 2: not shown
light 1: B1 light 1
light 2: B1 light 2
B6: Humanized 11K2 (antibody, human IgG1, V domains shown)
VH: QVQLVQSGAEVKKPGSSVKVSCKASGLTISDTYMHWVRQAPGQGLEWMGRIDPANGNTKFDPKFQGRVTITADTSTSTAYMELSSLRSEDTAVYYCARGVFGFFDYWGQGTTVTVSS
VL: DIQMTQSPSSLSASVGDRVTITCKATEDIYNRLAWYQQKPGKAPKLLISGATSLETGVPSRFSGSGSGTDYTLTISSLQPEDFATYYCQQFWSAPYTFGGGTKVEIK
notes: Generated as human IgG1 wild type and IgG1 PGLALA with kappa light chain; also called CCL2-0002; humanized 11k2 IgG1
B7: 1A4 (antibody, V domains shown)
VH: QSLEESGGDLVKPGASLTLTCTASELDFYWICWVRQAPGKGLEWIACIGAGSSGSTYYASWAKGRFTVSKTSSTTVTLQMTSLTAADTATYFCARTGTEFTYYSLWGPGTLVTVSS
VL: ALVMTQTPSSVSAAVGGTVTINCQASQSVYNNNMAWYQQKPGQPPKLLIYTASSLASGVPSHFRGSGSGTQFTLTISDLESDDAATYYCAGYKSYSNDEYGFGGGTEVVVK
notes: also called CCL2-0008
B8: 2F6 (antibody, V domains shown)
VH: QSLEESGGGLVQPEGSLTLTCTASGFSFNNNYYMCWVRQAPGKGLEWIGCISTDDSNTHYASWAQGRFTISKASSTALTLQVAGLTVADMATYFCARDAHFTSYGYGFDLWGPGTLVTVSS
VL: DIVMTQTPASVSAAVGGTVSINCRASEDIENLVAWYQQKPGQPPKLLIYQASKLASGVPSRFKGSGSGAEFTLTIGDLESADAATYYCQGDYGSGWIMYSFGGGTDLVVK
notes: Generated as IgG1 wild type and IgG1 PGLALA with kappa light chain; also called CCL2-0014
B9: 1A5 (antibody, V domains shown)
VH: QEQLVESGGDLVKPEGSLTLTCTASGFSFSTSYWMCWVRQAPGKGLELIACISSSIGVTYYASWAEGRFTISKTSSTTVTLQMTSLTVADTATYFCARTTDDNWNVGFNLWGPGTLVTVSS
VL: AYDMTQTPASVEVGVGGTVTIKCQASQSIGNRYLSWYQQKPGQPPKLLIYGTSTLASGVSSRFKGSGSGTQFTLTISGVESADSATYYCQQGATISYLDNAFGGGTEVVVK
notes: Generated as IgG1 wild type and IgG1 PGLALA with kappa light chain; also called CCL2-0009
B10: 1G9 (antibody, V domains shown)
VH: QSLEESGGDLVKPGASLTLTCKASGIDFSLYSYMCWVRQAPGKGLEWIACVDAGASGSTYYASWAKGRFTISKTSSTTVTLQMTSLTAADTATYFCARGILYYTWPYPAGAIDAFDSWGPGTLVTVSS
VL: AYDMTQTPASVSEPVGGTVTIKCQASESISNYLSWYQQKPGQPPKLLIYKASTLASGVPSRFKGSGSGTEYTVTISGVQSDDAATYYCQQSYSSSNVFNTFGGGTEVVVK
notes: Generated as IgG1 wild type and IgG1 PGLALA with kappa light chain; also called CCL2-0010
B11: ABN912 (antibody, human IgG1, V domains shown)
VH: EVQLVQSGGGLVQPGGSLRLSCAASGFTFSHYWMSWVRQAPGKGLEWLANIEQDGSEKYYVDSVKGRFTISRDNAKNSLYLQMNSLRAEDTAVYFCARDLEGLHGDGYFDLWGRGTLVTVSS
VL: AIQLTQSPSSLSASVGDRVILTCRASQGVSSALAWYQQKPGKAPKLLIYDASSLESGVPSRFSGSGSGPDFTLTISSLQPEDFATYFCQQFNSYPLTFGGGTKVEIK
notes: Generated as human IgG1 wild type and IgG1 PGLALA with kappa light chain; also called AB912; CCL2-0003
B12: murine 11K2 (antibody, V domains shown)
VH: EVQLQQSGAELVKAGASVKLSCPASGLNIKDTYMHWVKQRPEQGLEWIGRIDPANGNTKFDPKFQGKATITADTSSNTAYLQLSSLTSEDTAVYYCARGVFGFFDYWGQGTTLTVSS
VL: DIQMTQSSSSFSVSLGDRVTITCKATEDIYNRLAWYQQKPGSAPRLLISGATSLETGVPSRFSGSGSGKDYTLSITSLQTEDVATYYCQQFWSAPYTFGGGTKLEIK
notes: also called 11K2m; X-0048
B13: 1A4//2F6-PGLALA (bispecific antibody, V domains shown)
VH 1: B7 VH
VL 1: B7 VL
VH 2: B8 VH
VL 2: B8 VL
notes: CrossMab: 1A4 arm VH/VL crossed, 2F6 arm non-crossed with CH1/CL charge modifications, knobs-into-holes, human IgG1 with L234A, L235A, P329G; also called CCL2-0054; P1AA3459
B14: 1A4//2F6-WT IgG1 (bispecific antibody, V domains shown)
VH 1: B7 VH
VL 1: B7 VL
VH 2: B8 VH
VL 2: B8 VL
notes: CrossMab: 1A4 arm VH/VL crossed, 2F6 arm non-crossed with CH1/CL charge modifications, knobs-into-holes, human IgG1 wild type Fc; also called CCL2-0057; P1AA3400

Molecular target: T1, human CCL2 (MCP1) - wild type (wt) (human, UniProt P13500 24-99)
Assay: cell-based or functional assay

Row | IC50, inhibition of THP-1 migration towards recombinant huCCL2 | Binder
1 | 0.2 µg/mL | B1
2 | 0.2 µg/mL | B2
3 | 0.2 µg/mL | B3
4 | 0.2 µg/mL | B4
5 | 0.3 µg/mL | B5
6 | 0.7 µg/mL | B6

Molecular target: T1, human CCL2 (MCP1) - wild type (wt)
Assay: SPR Biacore T200, 37 C, antibody captured, CCL2 as analyte, 1:1 model

Row | T½ | Binder
7 | 1.67 h | B7
8 | 0.867 h | B8
9 | 2.67 h | B9
10 | 1.97 h | B6
11 | 2.95 h | B10
12 | 0.55 h | B11
13 | 0.317 h | B12

Molecular target: T2, human CCL2 (MCP1) - P8A variant (human, UniProt P13500 24-99)
T2 construct: Entry is without signal peptide; P8A prevents dimer formation (pure monomer); made in-house; also called monomeric human CCL2; monomeric CCL2
Assay: as above

Row | T½ | Binder
14 | 2.9 h | B7
15 | 0.783 h | B8
16 | 2.28 h | B9
17 | 1.93 h | B6
18 | 3.63 h | B10
19 | 0.417 h | B11
20 | 8.63 h | B12

Molecular target: T1, human CCL2 (MCP1) - wild type (wt)
Assay: SPR Biacore T200, 25 C, pH 5.5, antibody captured via anti-human Fc, 1:1 model

Row | t½-diss. | Binder
21 | 1.97 h | B6
22 | 0.0005 h | B11

Molecular target: T1, human CCL2 (MCP1) - wild type (wt)
Assay: SPR Biacore T200, 25 C, pH 5.9, antibody captured via anti-human Fc, 1:1 model

Row | t½-diss. | Binder
23 | 4.78 h | B6
24 | 0.0167 h | B11

Molecular target: T1, human CCL2 (MCP1) - wild type (wt)
Assay: SPR Biacore T200, 25 C, pH 6.3, antibody captured via anti-human Fc, 1:1 model

Row | t½-diss. | Binder
25 | 19.2 h | B6
26 | 0.05 h | B11

Molecular target: T1, human CCL2 (MCP1) - wild type (wt)
Assay: SPR Biacore T200, 25 C, pH 6.7, antibody captured via anti-human Fc, 1:1 model

Row | t½-diss. | Binder
27 | 4.87 h | B6
28 | 0.133 h | B11

Molecular target: T1, human CCL2 (MCP1) - wild type (wt)
Assay: SPR Biacore T200, 25 C, pH 7.1, antibody captured via anti-human Fc, 1:1 model

Row | t½-diss. | Binder
29 | 3.58 h | B6
30 | 0.333 h | B11

Molecular target: T1, human CCL2 (MCP1) - wild type (wt)
Assay: SPR Biacore T200, 25 C, pH 7.4, antibody captured via anti-human Fc, 1:1 model

Row | t½-diss. | Binder
31 | 2.72 h | B6
32 | 0.55 h | B11

Molecular target: T1, human CCL2 (MCP1) - wild type (wt)
Assay: SPR Biacore T200, 25 C, pH 7.9, antibody captured via anti-human Fc, 1:1 model

Row | t½-diss. | Binder
33 | 2.75 h | B6
34 | 0.417 h | B11

Molecular target: T1, human CCL2 (MCP1) - wild type (wt)
Assay: SPR Biacore T200, 25 C, pH 8.3, antibody captured via anti-human Fc, 1:1 model

Row | t½-diss. | Binder
35 | 19.2 h | B6
36 | 0.583 h | B11

Molecular target: T1, human CCL2 (MCP1) - wild type (wt)
Assay: SPR, 25 C, pH 7.4, antibody captured via anti-human Fc on C1 chip, wt CCL2 as analyte, 1:1 model

Row | binding result | Binder
37 | binds | B13
38 | binds | B14
